From US20140087995A1 (published 2014)
Numbered stars: 1 amine (or outer) side, 2 acyl side, 3 side chain; on linkers, the order of the positions; unused ones are H or OH. Bridge positions count the residues as written; N and C are the ends. * marks the point of attachment. C20 diacid = O=C(O)CCCCCCCCCCCCCCCCCCC(=O)*; γGlu = O=C(O)[C@H](CCC(=O)[*:2])N[*:1]

T1: human amylin receptor (amylin 3(a) receptor: human calcitonin receptor plus RAMP-3) (human, UniProt P30988 25-474; O60896 24-148, limits assumed)
T1 sequence (looked up) 1: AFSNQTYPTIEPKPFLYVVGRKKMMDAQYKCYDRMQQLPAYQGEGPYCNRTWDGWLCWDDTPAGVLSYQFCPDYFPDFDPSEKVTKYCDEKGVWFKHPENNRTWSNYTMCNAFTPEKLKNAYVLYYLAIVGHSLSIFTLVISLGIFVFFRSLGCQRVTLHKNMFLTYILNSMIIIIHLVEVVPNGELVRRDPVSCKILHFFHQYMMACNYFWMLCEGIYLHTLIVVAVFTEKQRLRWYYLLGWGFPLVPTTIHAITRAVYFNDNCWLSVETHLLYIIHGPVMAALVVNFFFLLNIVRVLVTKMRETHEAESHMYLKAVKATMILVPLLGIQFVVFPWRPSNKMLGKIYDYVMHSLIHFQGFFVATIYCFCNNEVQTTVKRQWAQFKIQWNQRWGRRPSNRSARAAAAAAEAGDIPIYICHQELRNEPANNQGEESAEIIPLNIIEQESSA
T1 sequence (looked up) 2: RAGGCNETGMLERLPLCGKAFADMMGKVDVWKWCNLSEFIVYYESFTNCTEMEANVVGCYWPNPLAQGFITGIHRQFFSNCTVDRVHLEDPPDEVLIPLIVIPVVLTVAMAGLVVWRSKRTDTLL

T2: human calcitonin receptor (human, UniProt P30988 25-474)
T2 sequence (looked up): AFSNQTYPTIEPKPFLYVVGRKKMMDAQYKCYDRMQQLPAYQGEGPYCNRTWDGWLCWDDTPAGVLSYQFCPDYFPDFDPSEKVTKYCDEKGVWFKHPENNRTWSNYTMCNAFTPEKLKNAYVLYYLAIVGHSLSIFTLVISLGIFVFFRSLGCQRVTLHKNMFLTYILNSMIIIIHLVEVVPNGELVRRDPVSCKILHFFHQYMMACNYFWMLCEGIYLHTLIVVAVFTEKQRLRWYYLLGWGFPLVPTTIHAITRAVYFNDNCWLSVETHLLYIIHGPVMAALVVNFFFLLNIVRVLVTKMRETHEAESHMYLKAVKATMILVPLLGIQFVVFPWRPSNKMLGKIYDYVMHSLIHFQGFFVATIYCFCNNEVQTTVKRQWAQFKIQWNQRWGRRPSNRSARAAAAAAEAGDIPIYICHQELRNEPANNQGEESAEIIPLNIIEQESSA

B1: N^α1-[(4S)-4-carboxy-4-(19-carboxynonadecanoylamino)butanoyl]-[Glu14,Arg17,Pro21,Pro27,His34]-h-amylin (peptide)
peptide: {C20 diacid-γGlu}-KCNTATCATQRLAEFLRHSSPNFGAIPSSTNVGHNTY-NH2
modifications: disulfide 2-7
SMILES: CC[C@H](C)[C@H](NC(=O)[C@H](C)NC(=O)CNC(=O)[C@H](Cc1ccccc1)NC(=O)[C@H](CC(N)=O)NC(=O)[C@@H]1CCCN1C(=O)[C@H](CO)NC(=O)[C@H](CO)NC(=O)[C@H](Cc1c[nH]cn1)NC(=O)[C@H](CCCNC(=N)N)NC(=O)[C@H](CC(C)C)NC(=O)[C@H](Cc1ccccc1)NC(=O)[C@H](CCC(=O)O)NC(=O)[C@H](C)NC(=O)[C@H](CC(C)C)NC(=O)[C@H](CCCNC(=N)N)NC(=O)[C@H](CCC(N)=O)NC(=O)[C@@H](NC(=O)[C@H](C)NC(=O)[C@@H]1CSSC[C@H](NC(=O)[C@H](CCCCN)NC(=O)CC[C@H](NC(=O)CCCCCCCCCCCCCCCCCCC(=O)O)C(=O)O)C(=O)N[C@@H](CC(N)=O)C(=O)N[C@@H]([C@@H](C)O)C(=O)N[C@@H](C)C(=O)N[C@@H]([C@@H](C)O)C(=O)N1)[C@@H](C)O)C(=O)N1CCC[C@H]1C(=O)N[C@@H](CO)C(=O)N[C@@H](CO)C(=O)N[C@H](C(=O)N[C@@H](CC(N)=O)C(=O)N[C@H](C(=O)NCC(=O)N[C@@H](Cc1c[nH]cn1)C(=O)N[C@@H](CC(N)=O)C(=O)N[C@H](C(=O)N[C@@H](Cc1ccc(O)cc1)C(N)=O)[C@@H](C)O)C(C)C)[C@@H](C)O
notes: also called compound 17
B2: N^α1-[(4S)-4-carboxy-4-(19-carboxynonadecanoylamino)butanoyl]-[Glu14,Arg17,Pro21,Pro27,Pro34]-h-amylin (peptide)
peptide: {C20 diacid-γGlu}-KCNTATCATQRLAEFLRHSSPNFGAIPSSTNVGPNTY-NH2
modifications: disulfide 2-7
SMILES: CC[C@H](C)[C@H](NC(=O)[C@H](C)NC(=O)CNC(=O)[C@H](Cc1ccccc1)NC(=O)[C@H](CC(N)=O)NC(=O)[C@@H]1CCCN1C(=O)[C@H](CO)NC(=O)[C@H](CO)NC(=O)[C@H](Cc1c[nH]cn1)NC(=O)[C@H](CCCNC(=N)N)NC(=O)[C@H](CC(C)C)NC(=O)[C@H](Cc1ccccc1)NC(=O)[C@H](CCC(=O)O)NC(=O)[C@H](C)NC(=O)[C@H](CC(C)C)NC(=O)[C@H](CCCNC(=N)N)NC(=O)[C@H](CCC(N)=O)NC(=O)[C@@H](NC(=O)[C@H](C)NC(=O)[C@@H]1CSSC[C@H](NC(=O)[C@H](CCCCN)NC(=O)CC[C@H](NC(=O)CCCCCCCCCCCCCCCCCCC(=O)O)C(=O)O)C(=O)N[C@@H](CC(N)=O)C(=O)N[C@@H]([C@@H](C)O)C(=O)N[C@@H](C)C(=O)N[C@@H]([C@@H](C)O)C(=O)N1)[C@@H](C)O)C(=O)N1CCC[C@H]1C(=O)N[C@@H](CO)C(=O)N[C@@H](CO)C(=O)N[C@H](C(=O)N[C@@H](CC(N)=O)C(=O)N[C@H](C(=O)NCC(=O)N1CCC[C@H]1C(=O)N[C@@H](CC(N)=O)C(=O)N[C@H](C(=O)N[C@@H](Cc1ccc(O)cc1)C(N)=O)[C@@H](C)O)C(C)C)[C@@H](C)O
notes: also called compound 32
B3: N^α1-[(4S)-4-carboxy-4-(19-carboxynonadecanoylamino)butanoyl]-[Glu14,Arg17,Pro21,Pro27,Pro37]-h-amylin (peptide)
peptide: {C20 diacid-γGlu}-KCNTATCATQRLAEFLRHSSPNFGAIPSSTNVGSNTP-NH2
modifications: disulfide 2-7
SMILES: CC[C@H](C)[C@H](NC(=O)[C@H](C)NC(=O)CNC(=O)[C@H](Cc1ccccc1)NC(=O)[C@H](CC(N)=O)NC(=O)[C@@H]1CCCN1C(=O)[C@H](CO)NC(=O)[C@H](CO)NC(=O)[C@H](Cc1c[nH]cn1)NC(=O)[C@H](CCCNC(=N)N)NC(=O)[C@H](CC(C)C)NC(=O)[C@H](Cc1ccccc1)NC(=O)[C@H](CCC(=O)O)NC(=O)[C@H](C)NC(=O)[C@H](CC(C)C)NC(=O)[C@H](CCCNC(=N)N)NC(=O)[C@H](CCC(N)=O)NC(=O)[C@@H](NC(=O)[C@H](C)NC(=O)[C@@H]1CSSC[C@H](NC(=O)[C@H](CCCCN)NC(=O)CC[C@H](NC(=O)CCCCCCCCCCCCCCCCCCC(=O)O)C(=O)O)C(=O)N[C@@H](CC(N)=O)C(=O)N[C@@H]([C@@H](C)O)C(=O)N[C@@H](C)C(=O)N[C@@H]([C@@H](C)O)C(=O)N1)[C@@H](C)O)C(=O)N1CCC[C@H]1C(=O)N[C@@H](CO)C(=O)N[C@@H](CO)C(=O)N[C@H](C(=O)N[C@@H](CC(N)=O)C(=O)N[C@H](C(=O)NCC(=O)N[C@@H](CO)C(=O)N[C@@H](CC(N)=O)C(=O)N[C@H](C(=O)N1CCC[C@H]1C(N)=O)[C@@H](C)O)C(C)C)[C@@H](C)O
notes: also called compound 8
B4: N^α1-[(4S)-4-carboxy-4-(19-carboxynonadecanoylamino)butanoyl]-[Glu14,Arg17,Pro21,Pro27,Pro29]-h-amylin (peptide)
peptide: {C20 diacid-γGlu}-KCNTATCATQRLAEFLRHSSPNFGAIPSPTNVGSNTY-NH2
modifications: disulfide 2-7
SMILES: CC[C@H](C)[C@H](NC(=O)[C@H](C)NC(=O)CNC(=O)[C@H](Cc1ccccc1)NC(=O)[C@H](CC(N)=O)NC(=O)[C@@H]1CCCN1C(=O)[C@H](CO)NC(=O)[C@H](CO)NC(=O)[C@H](Cc1c[nH]cn1)NC(=O)[C@H](CCCNC(=N)N)NC(=O)[C@H](CC(C)C)NC(=O)[C@H](Cc1ccccc1)NC(=O)[C@H](CCC(=O)O)NC(=O)[C@H](C)NC(=O)[C@H](CC(C)C)NC(=O)[C@H](CCCNC(=N)N)NC(=O)[C@H](CCC(N)=O)NC(=O)[C@@H](NC(=O)[C@H](C)NC(=O)[C@@H]1CSSC[C@H](NC(=O)[C@H](CCCCN)NC(=O)CC[C@H](NC(=O)CCCCCCCCCCCCCCCCCCC(=O)O)C(=O)O)C(=O)N[C@@H](CC(N)=O)C(=O)N[C@@H]([C@@H](C)O)C(=O)N[C@@H](C)C(=O)N[C@@H]([C@@H](C)O)C(=O)N1)[C@@H](C)O)C(=O)N1CCC[C@H]1C(=O)N[C@@H](CO)C(=O)N1CCC[C@H]1C(=O)N[C@H](C(=O)N[C@@H](CC(N)=O)C(=O)N[C@H](C(=O)NCC(=O)N[C@@H](CO)C(=O)N[C@@H](CC(N)=O)C(=O)N[C@H](C(=O)N[C@@H](Cc1ccc(O)cc1)C(N)=O)[C@@H](C)O)C(C)C)[C@@H](C)O
notes: also called compound 37
B5: N^α1-[(4S)-4-carboxy-4-(19-carboxynonadecanoylamino)butanoyl]-[Glu14,Arg17,Pro21,Pro27,His35]-h-amylin (peptide)
peptide: {C20 diacid-γGlu}-KCNTATCATQRLAEFLRHSSPNFGAIPSSTNVGSHTY-NH2
modifications: disulfide 2-7
SMILES: CC[C@H](C)[C@H](NC(=O)[C@H](C)NC(=O)CNC(=O)[C@H](Cc1ccccc1)NC(=O)[C@H](CC(N)=O)NC(=O)[C@@H]1CCCN1C(=O)[C@H](CO)NC(=O)[C@H](CO)NC(=O)[C@H](Cc1c[nH]cn1)NC(=O)[C@H](CCCNC(=N)N)NC(=O)[C@H](CC(C)C)NC(=O)[C@H](Cc1ccccc1)NC(=O)[C@H](CCC(=O)O)NC(=O)[C@H](C)NC(=O)[C@H](CC(C)C)NC(=O)[C@H](CCCNC(=N)N)NC(=O)[C@H](CCC(N)=O)NC(=O)[C@@H](NC(=O)[C@H](C)NC(=O)[C@@H]1CSSC[C@H](NC(=O)[C@H](CCCCN)NC(=O)CC[C@H](NC(=O)CCCCCCCCCCCCCCCCCCC(=O)O)C(=O)O)C(=O)N[C@@H](CC(N)=O)C(=O)N[C@@H]([C@@H](C)O)C(=O)N[C@@H](C)C(=O)N[C@@H]([C@@H](C)O)C(=O)N1)[C@@H](C)O)C(=O)N1CCC[C@H]1C(=O)N[C@@H](CO)C(=O)N[C@@H](CO)C(=O)N[C@H](C(=O)N[C@@H](CC(N)=O)C(=O)N[C@H](C(=O)NCC(=O)N[C@@H](CO)C(=O)N[C@@H](Cc1c[nH]cn1)C(=O)N[C@H](C(=O)N[C@@H](Cc1ccc(O)cc1)C(N)=O)[C@@H](C)O)C(C)C)[C@@H](C)O
notes: also called compound 18

Assays:
[1] = molecular target: T1, human amylin receptor (amylin 3(a) …); assay: cell-based or functional assay
[2] = molecular target: T2, human calcitonin receptor; assay: cell-based or functional assay
[3] = molecular target: T1, human amylin receptor (amylin 3(a) …); assay: SPA competition binding, membranes of Amylin 3(a)/CRE-luc BHK cells, displacement of 125I-rat amylin (Assay V)
Method: The binding assay was performed using scintillation proximity assay (SPA) beads (RPNQ0001) from PerkinElmer and cell membranes from the Amylin 3(a)/CRE-luc cells (as described in Assay (II)) were used. Membranes were prepared in the following way; the cells were rinsed with PBS and incubated with Versene for approximately 5 min before harvesting. The cells were flushed with PBS and the cell-suspension was centrifuged for 5 min at 1000 rpm. Cells were homogenized (ultrathurrax) in a buffer containing 20 mM Na-HEPES and 10 mM EDTA (pH 7.4) and centrifuged at 20.000 rpm for 15 min. The resulting pellet was resuspended, homogenized and centrifuged (20.000 rpm, 15 min) in a buffer containing 20 mM Na-HEPES and 0.1 mM EDTA (pH 7.4, buffer 2). The resulting pellet was resuspended in buffer 2 and protein concentration was measured (BCA protein Assay, Pierce). The homogenate was kept cold during the whole procedure. The membranes were kept at −80° C. until use. The assay was performed in a 384 well Optiplate (PerkinElmer) in a total volume of 40 ul. Membranes were mixed with SPA beads. Final concentration of membranes 35 ng/μL final and SPA beads was 0.05 mg/well. Test-compounds were dissolved in DMSO and further diluted in assay buffer (50 mM Hepes, pH 7.4, 1 mM CaCl2, 5 mM MgCl₂, 0.1% OA and 0.02% Tween20). […] The final mixture was incubated with shaking at 400 rpm for 120 min at 25° C. prior to centrifugation (1500 rpm, 10 min). Samples were analyzed on TopCounter™ (Packard). The IC₅₀ was calculated using (one site binding competition analysis) GraphPad Prism5 as a measure of receptor affinity.

Binder	hAmylin-R funct. EC50 [1] [nM]	Ratio hCT/hAmylin funct. (hCTR EC50 against hAmylin-R EC50) [2]	hCTR funct. EC50 [2] [nM]	IC50 [3] [nM]
B1	0.268	8.8	2.35	0.878
B2	0.05	6.6	0.327	0.1
B3	0.082	1.1	0.087	0.072
B4	0.092	4	0.372	0.97
B5	0.154	4.8	0.742	0.554
